Source: patent US20240376185A1 (SMIVET B V, published 2024)

T1: recombinant tetanus toxin fragment C (rTTC) (Clostridium tetani, UniProt P04958 865-1315)
T1 sequence: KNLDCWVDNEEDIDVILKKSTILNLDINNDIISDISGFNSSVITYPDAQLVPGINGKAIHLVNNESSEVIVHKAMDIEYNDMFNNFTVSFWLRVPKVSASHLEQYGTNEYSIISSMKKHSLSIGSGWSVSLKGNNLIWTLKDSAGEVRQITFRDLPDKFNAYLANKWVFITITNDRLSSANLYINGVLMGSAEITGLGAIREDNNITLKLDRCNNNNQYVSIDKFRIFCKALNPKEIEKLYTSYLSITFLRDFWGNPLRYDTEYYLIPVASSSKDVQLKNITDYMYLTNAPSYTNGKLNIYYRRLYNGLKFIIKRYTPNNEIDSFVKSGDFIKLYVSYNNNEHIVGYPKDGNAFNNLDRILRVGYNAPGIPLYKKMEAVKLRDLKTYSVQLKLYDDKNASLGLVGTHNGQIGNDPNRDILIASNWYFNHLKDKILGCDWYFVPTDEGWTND

B1: SVT15-3FW4M-GS2-SVG13M4-H6 (bispecific antibody)
chain: QVQLQESGGGLVQTGGSLRLSCRASGRAFANYHFGWFRQAPGKDREFVASISWKGGSTYYANFALGRFTSSVDRAESSVYLQMSGLTPEDTATYYCAAHDGGDWNYHTGMDYWGQGTQVTVSSGGGGSGGGSEVQLVESGGGLVQPGGSLRLSCEASGFTFDDYGMSWVRQAPGKGLEWVSSLTPNGGSTYYADSVKGRFTISRDNAKNTLYLQMNSLKPEDTALYYCAKNSYYGAMDYWGQGTQVTVSSHHHHHH
B2: SVT02-GS2-SVA12M2-H6 (bispecific antibody)
chain: QVQLQQSGGGSVQAGGSLRLSCVGPQRTFSTYGMGWFRQAPGKEREFVAGINYKGDTTYYADSVKGRFTISRDNAKNTLYLQMDSLKPEDRAVYQCARKGGLGGDYRDAGQYRYWGQGTQVTVSSGGGGSGGGSEVQLVESGGGLVQAGGSLRLSCAASGRTFSYYPMAWFRQAPGQEREFVAAIIGADTTYYADSLKGRFTISRDNAKNMVYLQMNSLKPEDTAVYYCAARNTYWSDVYYREGQYTNWGQGTQVTVSSHHHHHH
B3: SVT06-GS2-SVG13M4-H6 (bispecific antibody)
chain: QVQLQESGGGSVQAGGSLRLSCTASELSYDDYTIAWFRRAAGEGRVEDGEGVASITKSYDRAYDNKINYGHSVKGRFTISRDNAKNTVYLQMTDLLPSDTAVYYCALDITPPGGVGASLTEGFLFDYWGQGTQVTVSSGGGGSGGGSEVQLVESGGGLVQPGGSLRLSCEASGFTFDDYGMSWVRQAPGKGLEWVSSLTPNGGSTYYADSVKGRFTISRDNAKNTLYLQMNSLKPEDTALYYCAKNSYYGAMDYWGQGTQVTVSSHHHHHH
B4: SVT02-GS2-SVG13M4-H6 (bispecific antibody)
chain: QVQLQQSGGGSVQAGGSLRLSCVGPQRTFSTYGMGWFRQAPGKEREFVAGINYKGDTTYYADSVKGRFTISRDNAKNTLYLQMDSLKPEDRAVYQCARKGGLGGDYRDAGQYRYWGQGTQVTVSSGGGGSGGGSEVQLVESGGGLVQPGGSLRLSCEASGFTFDDYGMSWVRQAPGKGLEWVSSLTPNGGSTYYADSVKGRFTISRDNAKNTLYLQMNSLKPEDTALYYCAKNSYYGAMDYWGQGTQVTVSSHHHHHH
B5: SVT02 (VHH)
VHH: QVQLQQSGGGSVQAGGSLRLSCVGPQRTFSTYGMGWFRQAPGKEREFVAGINYKGDTTYYADSVKGRFTISRDNAKNTLYLQMDSLKPEDRAVYQCARKGGLGGDYRDAGQYRYWGQGTQVTVSS
B6: SVT02L (VHH)
VHH: B5 VHH
notes: yeast-produced
B7: SVT15-3FW4M-GS2-SVG06M4-H6 (bispecific antibody)
chain: QVQLQESGGGLVQTGGSLRLSCRASGRAFANYHFGWFRQAPGKDREFVASISWKGGSTYYANFALGRFTSSVDRAESSVYLQMSGLTPEDTATYYCAAHDGGDWNYHTGMDYWGQGTQVTVSSGGGGSGGGSEVQLVESGGALVQPGGSLRLSCAASGFPFSAYDMTWVRQAPGQGLEWVSTIHKSGGITTYADSVKGRFTISRDNAKNTLYLQMNNLESEDTAVYYCAKALRAHNSDYVGRNALGSWGQGTQVTVSSHHHHHH
B8: SVT03 (VHH)
VHH: QVQLQQSGGGSVQTGDSLTLSCTASGGSLNSYFVGWFRQSGGKEREFVSVIARTGRSTSYADSVKGRFTISRDNAANTVFLTMNNLRPDDTAIYYCAAVGRPGVLHLTQSYDYWGQGTQVTVSS
B9: SVT03L (VHH)
VHH: B8 VHH
notes: yeast-produced

Experiments:
[1] = target: T2, tetanus neurotoxin (TeNT), authentic tetanus holotoxin (Clostridium tetani, UniProt P04958 2-1315); assay: ELISA: directly coated TeNT, anti-his6 PO
Target sequence in this assay (P04958 2-457 limits assumed, chain 1 of 2): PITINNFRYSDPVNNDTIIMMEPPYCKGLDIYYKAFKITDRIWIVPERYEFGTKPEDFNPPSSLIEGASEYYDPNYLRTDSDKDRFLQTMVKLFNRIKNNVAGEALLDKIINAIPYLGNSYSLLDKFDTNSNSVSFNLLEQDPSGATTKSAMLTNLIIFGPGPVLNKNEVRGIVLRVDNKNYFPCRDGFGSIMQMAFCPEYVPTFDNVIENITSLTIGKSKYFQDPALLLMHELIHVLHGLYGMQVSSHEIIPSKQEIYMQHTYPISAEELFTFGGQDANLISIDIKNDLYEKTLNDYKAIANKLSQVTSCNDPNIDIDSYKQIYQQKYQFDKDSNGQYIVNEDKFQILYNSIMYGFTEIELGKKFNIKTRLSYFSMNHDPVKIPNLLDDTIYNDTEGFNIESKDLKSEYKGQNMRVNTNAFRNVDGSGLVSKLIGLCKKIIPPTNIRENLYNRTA
Target sequence in this assay (P04958 458-1315 limits assumed, chain 2 of 2): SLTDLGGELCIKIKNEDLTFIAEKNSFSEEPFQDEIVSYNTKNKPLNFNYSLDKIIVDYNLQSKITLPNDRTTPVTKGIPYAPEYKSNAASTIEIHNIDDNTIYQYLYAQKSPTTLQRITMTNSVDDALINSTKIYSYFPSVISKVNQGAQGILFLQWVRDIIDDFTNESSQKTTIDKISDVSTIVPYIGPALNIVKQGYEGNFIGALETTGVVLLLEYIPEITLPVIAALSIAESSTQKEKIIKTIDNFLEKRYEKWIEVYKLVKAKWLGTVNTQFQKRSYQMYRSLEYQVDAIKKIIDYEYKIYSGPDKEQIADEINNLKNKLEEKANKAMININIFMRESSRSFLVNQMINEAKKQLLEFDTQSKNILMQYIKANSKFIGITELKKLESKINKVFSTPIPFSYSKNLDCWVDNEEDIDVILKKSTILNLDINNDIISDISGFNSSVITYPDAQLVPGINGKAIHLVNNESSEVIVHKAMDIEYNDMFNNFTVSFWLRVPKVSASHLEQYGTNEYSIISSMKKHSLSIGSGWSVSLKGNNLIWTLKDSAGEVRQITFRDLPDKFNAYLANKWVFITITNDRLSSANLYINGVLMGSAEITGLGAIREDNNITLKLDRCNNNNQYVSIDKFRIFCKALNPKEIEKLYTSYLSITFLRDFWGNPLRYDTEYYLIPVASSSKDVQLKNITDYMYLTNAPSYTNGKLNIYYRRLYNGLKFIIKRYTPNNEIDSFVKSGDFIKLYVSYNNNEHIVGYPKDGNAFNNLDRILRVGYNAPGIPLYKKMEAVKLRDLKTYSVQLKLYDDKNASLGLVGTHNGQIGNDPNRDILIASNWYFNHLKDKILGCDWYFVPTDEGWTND

[2] = target: dog IgG (chrompure dog IgG) (dog)
[3] = target: T2, tetanus neurotoxin (TeNT), authentic …; assay: cell-based or functional assay
[4] = target: T2, tetanus neurotoxin (TeNT), authentic …; assay: bridging ELISA: coated dog IgG, SDA, biotinylated TeNT, StrepPO
Target sequence in this assay (P04958 2-457 limits assumed, chain 1 of 2): as the sequence (P04958 2-457 limits assumed, chain 1 of 2) above
Target sequence in this assay (P04958 458-1315 limits assumed, chain 2 of 2): as the sequence (P04958 458-1315 limits assumed, chain 2 of 2) above

[5] = target: T2, tetanus neurotoxin (TeNT), authentic …; assay: ELISA: directly coated TeNT, goat anti-llama Ig PO
Target sequence in this assay (P04958 2-457 limits assumed, chain 1 of 2): as the sequence (P04958 2-457 limits assumed, chain 1 of 2) above
Target sequence in this assay (P04958 458-1315 limits assumed, chain 2 of 2): as the sequence (P04958 458-1315 limits assumed, chain 2 of 2) above

[6] = target: T2, tetanus neurotoxin (TeNT), authentic …; assay: GT1b-TeNT inhibition ELISA
Target sequence in this assay (P04958 2-457 limits assumed, chain 1 of 2): as the sequence (P04958 2-457 limits assumed, chain 1 of 2) above
Target sequence in this assay (P04958 458-1315 limits assumed, chain 2 of 2): as the sequence (P04958 458-1315 limits assumed, chain 2 of 2) above

[7] = target: T2, tetanus neurotoxin (TeNT), authentic …; assay: ELISA: directly coated TeNT, anti-his6 PO; remark: listed apart in the source
[8] = target: T2, tetanus neurotoxin (TeNT), authentic …; assay: GT1b-TeNT inhibition ELISA; remark: listed apart in the source
Target sequence in this assay (P04958 2-457 limits assumed, chain 1 of 2): as the sequence (P04958 2-457 limits assumed, chain 1 of 2) above
Target sequence in this assay (P04958 458-1315 limits assumed, chain 2 of 2): as the sequence (P04958 458-1315 limits assumed, chain 2 of 2) above

[9] = target: T2, tetanus neurotoxin (TeNT), authentic …; assay: bridging ELISA: coated TeNT, SDA, biotinylated TeNT, StrepPO (bivalent binding)
Target sequence in this assay (P04958 2-457 limits assumed, chain 1 of 2): as the sequence (P04958 2-457 limits assumed, chain 1 of 2) above
Target sequence in this assay (P04958 458-1315 limits assumed, chain 2 of 2): as the sequence (P04958 458-1315 limits assumed, chain 2 of 2) above

[10] = target: T2, tetanus neurotoxin (TeNT), authentic …; assay: BLI (Octet Red96): biotinylated TeNT on SA sensor, SDA as analyte
[11] = target: dog IgG (chrompure dog IgG) (dog); remark: listed apart in the source
[12] = target: T2, tetanus neurotoxin (TeNT), authentic …; assay: bridging ELISA: coated dog IgG, SDA, biotinylated TeNT, StrepPO; remark: listed apart in the source
[13] = target: T2, tetanus neurotoxin (TeNT), authentic …; assay: ELISA: directly coated TeNT, goat anti-llama Ig PO; remark: listed apart in the source
[14] = target: T2, tetanus neurotoxin (TeNT), authentic …; assay: bridging ELISA: coated TeNT, SDA, biotinylated TeNT, StrepPO (bivalent binding); remark: listed apart in the source
[15] = target: T3, horse albumin (horse Alb) (horse, UniProt P35747 25-607); assay: bridging ELISA: cAb-TT2-captured TeNT, SDA, biotinylated horse Alb, StrepPO
T3 sequence (P35747 25-607 limits assumed): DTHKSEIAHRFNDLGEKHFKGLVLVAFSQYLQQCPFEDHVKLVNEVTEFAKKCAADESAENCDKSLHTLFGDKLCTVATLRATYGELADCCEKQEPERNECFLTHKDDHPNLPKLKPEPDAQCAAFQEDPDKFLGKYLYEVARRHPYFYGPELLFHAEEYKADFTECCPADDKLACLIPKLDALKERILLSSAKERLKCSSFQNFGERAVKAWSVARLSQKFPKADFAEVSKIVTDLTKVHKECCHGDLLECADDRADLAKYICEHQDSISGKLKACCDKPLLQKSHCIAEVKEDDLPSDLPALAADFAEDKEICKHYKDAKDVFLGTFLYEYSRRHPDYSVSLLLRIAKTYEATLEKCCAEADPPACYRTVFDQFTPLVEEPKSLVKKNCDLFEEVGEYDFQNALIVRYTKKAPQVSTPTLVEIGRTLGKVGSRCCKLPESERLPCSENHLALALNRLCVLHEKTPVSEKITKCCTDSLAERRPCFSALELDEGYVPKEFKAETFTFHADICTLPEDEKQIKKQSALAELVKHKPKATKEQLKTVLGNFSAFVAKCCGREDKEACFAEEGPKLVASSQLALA

[16] = target: T3, horse albumin (horse Alb); assay: as above; remark: listed apart in the source
dog albumin (dog Alb) [17] = target: T4, dog albumin (dog Alb) (dog, UniProt P49822 25-608); assay: ELISA: coated dog Alb, anti-his6 PO
T4 construct: also called Canine albumin
T4 sequence (P49822 25-608 limits assumed): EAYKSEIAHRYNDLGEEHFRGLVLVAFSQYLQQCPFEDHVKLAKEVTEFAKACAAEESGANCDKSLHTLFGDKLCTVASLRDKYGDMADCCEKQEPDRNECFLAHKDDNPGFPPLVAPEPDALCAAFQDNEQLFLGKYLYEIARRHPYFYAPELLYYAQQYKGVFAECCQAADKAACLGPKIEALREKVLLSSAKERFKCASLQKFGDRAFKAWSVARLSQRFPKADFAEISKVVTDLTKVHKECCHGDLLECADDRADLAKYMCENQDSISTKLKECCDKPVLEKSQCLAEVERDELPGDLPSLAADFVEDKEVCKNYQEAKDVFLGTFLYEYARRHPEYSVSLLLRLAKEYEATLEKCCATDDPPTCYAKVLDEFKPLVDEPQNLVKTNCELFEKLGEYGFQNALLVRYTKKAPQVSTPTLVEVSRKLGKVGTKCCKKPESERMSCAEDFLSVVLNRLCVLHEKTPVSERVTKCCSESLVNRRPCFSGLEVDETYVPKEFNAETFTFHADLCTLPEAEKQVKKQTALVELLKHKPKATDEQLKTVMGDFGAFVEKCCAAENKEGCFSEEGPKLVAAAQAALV

dog albumin (dog Alb) [18] = target: T4, dog albumin (dog Alb); assay: ELISA: coated dog Alb, anti-his6 PO; remark: listed apart in the source
[19] = target: T5, tetanus neurotoxin (TeNT), authentic tetanus holotoxin (Clostridium tetani, UniProt P04958 2-1315); assay: ELISA, cAb-TT2 captured TeNT, E. coli supernatant
[20] = target: T5, tetanus neurotoxin (TeNT), authentic …; assay: GT1b-TeNT inhibition ELISA (no SDA: 1.302, 1.257)
[21] = target: T1, recombinant tetanus toxin fragment C …; assay: ELISA, directly coated rTTC, E. coli supernatant
[22] = target: T5, tetanus neurotoxin (TeNT), authentic …; assay: ELISA, directly coated TeNT, E. coli supernatant
[23] = target: T1, recombinant tetanus toxin fragment C …; assay: ELISA, directly coated rTTC

Binder | maximal absorbance value [1] [A450] | Endpoint dilution factor [3] | SDA concentration providing full protection [3] [nM] | Effective SDA Concentration at A450 0.3 [4] [ng/mL] | maximal absorbance value [5] [A450] | Effective SDA Concentration at A450 0.56 [6] [ng/mL] | Effective SDA Concentration at A450 0.15 [7] [ng/mL] | minimal absorbance value (GT1b-TeNT inhibition) [8] [A450] | maximal absorbance value [9] [A450] | Kd [10] [nM] | koff [10] [s⁻¹] | kon [10] [M⁻¹ s⁻¹] | maximal absorbance value [11] [A450] | maximal absorbance value [12] [A450] | Effective SDA Concentration at A450 0.15 [13] [ng/mL] | Effective SDA Concentration at A450 0.3 [14] [ng/mL] | binding result [23] | other results
B1 | 1.51 | 2.8 | 500 | 2.2 | 1.16 | 77 | 4.9 | 0.13 | 0.78 | 0.0158 | 6.77e-06 | 429000 | 1 | 1.47 | 2 | 23 |  | Effective SDA Concentration at A450 0.2 [2]: 63 ng/mL; Potency IU/mg [3]: 1.21 IU/mg
B2 |  |  |  |  |  |  |  |  |  |  |  |  |  |  |  |  |  | maximal absorbance value [15]: 1.1 A450; Effective SDA Concentration at A450 0.7 [16]: 11 ng/mL; Effective SDA Concentration at A450 0.2 (dog albumin (dog Alb) [17]): 13 ng/mL; maximal absorbance value (dog albumin (dog Alb) [18]): 1.91 A450
B3 | 1.44 | 2.4 | 1000 | < 0.49 | 1.2 | 93 | 3.4 | 0.22 | 0.98 | 0.123 | 8.24e-05 | 670000 | 1.18 | 1.61 | 2 | 9.6 |  | Effective SDA Concentration at A450 0.2 [2]: 46 ng/mL; Potency IU/mg [3]: 1.04 IU/mg
B4 | 0.06 | < 1 | > 1000 | 9.1 | 0.09 | > 1000 | > 1000 | 0.77 | 0.19 | 0.0987 | 0.000121 | 1.23e+06 | 0.18 | 1.32 | > 1000 | > 1000 |  | 
B5 |  |  |  |  |  |  |  |  |  |  |  |  |  |  |  |  | no binding (tested: tenfold diluted supernatant) | absorbance at 450 nm [19]: 0.511 A450; absorbance at 450 nm [20]: 1.34 A450; absorbance at 450 nm [21]: 0.06 A450; absorbance at 450 nm [22]: 0.078 A450
B6 |  |  |  |  |  |  |  |  |  |  |  |  |  |  |  |  | no binding | 
B7 | 0.37 |  |  | 8.3 | 1.23 | 131 | 37 | 0.12 | 0.29 |  |  |  | 0.07 | 1.3 | 4.3 | > 1000 |  | 
B8 |  |  |  |  |  |  |  |  |  |  |  |  |  |  |  |  | no binding (tested: tenfold diluted supernatant) | absorbance at 450 nm [19]: 0.534 A450; absorbance at 450 nm [20]: 1.29 A450; absorbance at 450 nm [21]: 0.061 A450; absorbance at 450 nm [22]: 0.091 A450
B9 |  |  |  |  |  |  |  |  |  |  |  |  |  |  |  |  | no binding | 
